Results on 5 molecules are retold here after article doi:10.1101/2025.07.15.665015 (bioRxiv, 2025).

In one data set the target is PKRΔKD (Homo sapiens, UniProt P19525 1-184, del185-551). Put plainly: single-molecule colocalization.
Data set [1] addresses T1, PKR (Homo sapiens, UniProt P19525 1-551). Put plainly: single-molecule colocalization.
In data set [2] the target is T1, PKR. Put plainly: competition.
Data set [3] deals with T1, PKR. Put plainly: competition. The source holds these as a separate data set.
Data set [4] deals with the molecule itself. Put plainly: single-molecule TIRF two-colour co-localisation.
Data set [5] concerns the target T1, PKR. Put plainly: single-molecule colocalization. The source holds these as a separate data set.

B1: 79-bp dsRNA (dsRNA)
RNA 1: GGGUUUUCCCAGUCACGACGUUGUAAAACGACGGCCAGUGAAUUCGAGCUCGGUACCCGGGGAUCCUCUAGAGUCGACC
RNA 2: GGUCGACUCUAGAGGAUCCCCGGGUACCGAGCUCGAAUUCACUGGCCGUCGUUUUACAACGUCGUGACUGGGAAAACCC
With B1, the binding result in the data set with PKRΔKD and with PKR [1] was “binds” in each case.

B2: 33-bp dsRNA (dsRNA)
RNA 1: GGGUUUUCCCAGUCACGACGUUGUAAAACGACG
RNA 2: CGUCGUUUUACAACGUCGUGACUGGGAAAACCC
As for B2, the binding result with PKR [2] is recorded as “binds”.

B3: 25-bp dsRNA (dsRNA)
RNA 1: GGGUUUUCCCAGUCACGACGUUGUA
RNA 2: UACAACGUCGUGACUGGGAAAACCC
Regarding B3, the binding result with PKR [3] was “binds”.

B4: PKR(K-E) (K150E and K154E), Cy3-labelled (enzyme, human, UniProt P19525 1-551, looked up)
chain: MAGDLSAGFFMEELNTYRQKQGVVLKYQELPNSGPPHDRRFTFQVIIDGREFPEGEGRSKKEAKNAAAKLAVEILNKEKKAVSPLLLTTTNSSEGLSMGNYIGLINRIAQKKRLTVNYEQCASGVHGPEGFHYKCKMGQKEYSIGTGSTEQEAEQLAAKLAYLQILSEETSVKSDYLSSGSFATTCESQSNSLVTSTLASESSSEGDFSADTSEINSNSDSLNSSSLLMNGLRNNQRKAKRSLAPRFDLPDMKETKYTVDKRFGMDFKEIELIGSGGFGQVFKAKHRIDGKTYVIKRVKYNNEKAEREVKALAKLDHVNIVHYNGCWDGFDYDPETSDDSLESSDYDPENSKNSSRSKTKCLFIQMEFCDKGTLEQWIEKRRGEKLDKVLALELFEQITKGVDYIHSKKLIHRDLKPSNIFLVDTKQVKIGDFGLVTSLKNDGKRTRSKGTLRYMSPEQISSQDYGKEVDLYALGLILAELLHVCDTAFETSKFFTDLRDGIISDIFDKKEKTLLQKLLSKKPEDRPNTSEILRTLTVWKKSPEKNERHTC
modifications: Cy3 at the N-terminus, by sortase-mediated ligation of the peptide Cy3-CLPETGG
Turning to B4, the binding result in data set [4] is reported as “binds”.

B5: mini-VA (structured_RNA)
RNA: GGGUAUCAUGGCGGACGACCGGGGUUCGAACCCCGGAUCCGGCCGUCCGCCGUGAUACCC
Take B5: in the data set with PKR [5], the binding result was “binds”.
